Data taken from patent US20140087995A1 (published 2014).
Numbered stars: 1 amine (or outer) side, 2 acyl side, 3 side chain; on linkers, the order of the positions; unused ones are H or OH. Bridge positions count the residues as written; N and C are the ends. Side chains are listed from the residue outwards. Ends that are not written are not given here. * marks the point of attachment. C20 diacid = O=C(O)CCCCCCCCCCCCCCCCCCC(=O)*; γGlu = O=C(O)[C@H](CCC(=O)[*:2])N[*:1]

T1: human calcitonin receptor (human, UniProt P30988 25-474)
T1 sequence (looked up): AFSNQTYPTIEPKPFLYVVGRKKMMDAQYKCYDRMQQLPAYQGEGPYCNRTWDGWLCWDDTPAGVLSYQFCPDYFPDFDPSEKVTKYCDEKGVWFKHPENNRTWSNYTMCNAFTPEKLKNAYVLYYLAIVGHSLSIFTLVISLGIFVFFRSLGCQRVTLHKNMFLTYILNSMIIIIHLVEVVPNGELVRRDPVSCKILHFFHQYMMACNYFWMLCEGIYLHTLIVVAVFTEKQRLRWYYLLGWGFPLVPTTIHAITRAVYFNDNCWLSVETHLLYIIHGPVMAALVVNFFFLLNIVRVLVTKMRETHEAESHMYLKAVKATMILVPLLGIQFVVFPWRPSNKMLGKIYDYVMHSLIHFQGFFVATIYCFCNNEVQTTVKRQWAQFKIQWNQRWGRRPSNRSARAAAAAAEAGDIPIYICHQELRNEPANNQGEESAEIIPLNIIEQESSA

B1: N^ε1-[(4S)-4-carboxy-4-[[(4S)-4-carboxy-4-(19-carboxynonadecanoylamino)butanoyl]amino]butanoyl]-[Ser14,Arg17,Pro21,Pro27,Pro34,Glu35]-h-amylin (peptide)
peptide: K([γGlu-γGlu-C20 diacid])CNTATCATQRLASFLRHSSPNFGAIPSSTNVGPETY-NH2
modifications: disulfide 2-7; N-terminus assumed
SMILES: CC[C@H](C)[C@H](NC(=O)[C@H](C)NC(=O)CNC(=O)[C@H](Cc1ccccc1)NC(=O)[C@H](CC(N)=O)NC(=O)[C@@H]1CCCN1C(=O)[C@H](CO)NC(=O)[C@H](CO)NC(=O)[C@H](Cc1c[nH]cn1)NC(=O)[C@H](CCCNC(=N)N)NC(=O)[C@H](CC(C)C)NC(=O)[C@H](Cc1ccccc1)NC(=O)[C@H](CO)NC(=O)[C@H](C)NC(=O)[C@H](CC(C)C)NC(=O)[C@H](CCCNC(=N)N)NC(=O)[C@H](CCC(N)=O)NC(=O)[C@@H](NC(=O)[C@H](C)NC(=O)[C@@H]1CSSC[C@H](NC(=O)[C@@H](N)CCCCNC(=O)CC[C@H](NC(=O)CC[C@H](NC(=O)CCCCCCCCCCCCCCCCCCC(=O)O)C(=O)O)C(=O)O)C(=O)N[C@@H](CC(N)=O)C(=O)N[C@@H]([C@@H](C)O)C(=O)N[C@@H](C)C(=O)N[C@@H]([C@@H](C)O)C(=O)N1)[C@@H](C)O)C(=O)N1CCC[C@H]1C(=O)N[C@@H](CO)C(=O)N[C@@H](CO)C(=O)N[C@H](C(=O)N[C@@H](CC(N)=O)C(=O)N[C@H](C(=O)NCC(=O)N1CCC[C@H]1C(=O)N[C@@H](CCC(=O)O)C(=O)N[C@H](C(=O)N[C@@H](Cc1ccc(O)cc1)C(N)=O)[C@@H](C)O)C(C)C)[C@@H](C)O
notes: synthetic peptide amide; also called compound 120
B2: N{-1}-[(4S)-4-carboxy-4-(19-carboxynonadecanoylamino)butanoyl]-Gly[Arg1,His14,Arg17,Pro21,Pro27]-h-amylin (peptide)
peptide: {C20 diacid-γGlu}-GRCNTATCATQRLAHFLRHSSPNFGAIPSSTNVGSNTY-NH2
modifications: disulfide 3-8
SMILES: CC[C@H](C)[C@H](NC(=O)[C@H](C)NC(=O)CNC(=O)[C@H](Cc1ccccc1)NC(=O)[C@H](CC(N)=O)NC(=O)[C@@H]1CCCN1C(=O)[C@H](CO)NC(=O)[C@H](CO)NC(=O)[C@H](Cc1c[nH]cn1)NC(=O)[C@H](CCCNC(=N)N)NC(=O)[C@H](CC(C)C)NC(=O)[C@H](Cc1ccccc1)NC(=O)[C@H](Cc1c[nH]cn1)NC(=O)[C@H](C)NC(=O)[C@H](CC(C)C)NC(=O)[C@H](CCCNC(=N)N)NC(=O)[C@H](CCC(N)=O)NC(=O)[C@@H](NC(=O)[C@H](C)NC(=O)[C@@H]1CSSC[C@H](NC(=O)[C@H](CCCNC(=N)N)NC(=O)CNC(=O)CC[C@H](NC(=O)CCCCCCCCCCCCCCCCCCC(=O)O)C(=O)O)C(=O)N[C@@H](CC(N)=O)C(=O)N[C@@H]([C@@H](C)O)C(=O)N[C@@H](C)C(=O)N[C@@H]([C@@H](C)O)C(=O)N1)[C@@H](C)O)C(=O)N1CCC[C@H]1C(=O)N[C@@H](CO)C(=O)N[C@@H](CO)C(=O)N[C@H](C(=O)N[C@@H](CC(N)=O)C(=O)N[C@H](C(=O)NCC(=O)N[C@@H](CO)C(=O)N[C@@H](CC(N)=O)C(=O)N[C@H](C(=O)N[C@@H](Cc1ccc(O)cc1)C(N)=O)[C@@H](C)O)C(C)C)[C@@H](C)O
notes: N-terminal extension by Gly; synthetic peptide amide; also called compound 99

Target: T1, human calcitonin receptor
Assay: cell-based or functional assay

Binder	hCTR funct. EC50 (pM)
B1	887
B2	818
